Measured values from publication PMC8509414, “A Novel GUCA1A Variant Associated with Cone Dystrophy Alters cGMP Signaling in Photoreceptors by Strongly Interacting with and Hyperactivating Retinal Guanylate Cyclase” (International Journal of Molecular Sciences, 2021).

Legend:
[1] = target: T1, human recombinant ROS-GC1 (retinal guanylate cyclase 1) (human, UniProt Q02846 52-1103); assay: cell-based or functional assay
T1 sequence (looked up): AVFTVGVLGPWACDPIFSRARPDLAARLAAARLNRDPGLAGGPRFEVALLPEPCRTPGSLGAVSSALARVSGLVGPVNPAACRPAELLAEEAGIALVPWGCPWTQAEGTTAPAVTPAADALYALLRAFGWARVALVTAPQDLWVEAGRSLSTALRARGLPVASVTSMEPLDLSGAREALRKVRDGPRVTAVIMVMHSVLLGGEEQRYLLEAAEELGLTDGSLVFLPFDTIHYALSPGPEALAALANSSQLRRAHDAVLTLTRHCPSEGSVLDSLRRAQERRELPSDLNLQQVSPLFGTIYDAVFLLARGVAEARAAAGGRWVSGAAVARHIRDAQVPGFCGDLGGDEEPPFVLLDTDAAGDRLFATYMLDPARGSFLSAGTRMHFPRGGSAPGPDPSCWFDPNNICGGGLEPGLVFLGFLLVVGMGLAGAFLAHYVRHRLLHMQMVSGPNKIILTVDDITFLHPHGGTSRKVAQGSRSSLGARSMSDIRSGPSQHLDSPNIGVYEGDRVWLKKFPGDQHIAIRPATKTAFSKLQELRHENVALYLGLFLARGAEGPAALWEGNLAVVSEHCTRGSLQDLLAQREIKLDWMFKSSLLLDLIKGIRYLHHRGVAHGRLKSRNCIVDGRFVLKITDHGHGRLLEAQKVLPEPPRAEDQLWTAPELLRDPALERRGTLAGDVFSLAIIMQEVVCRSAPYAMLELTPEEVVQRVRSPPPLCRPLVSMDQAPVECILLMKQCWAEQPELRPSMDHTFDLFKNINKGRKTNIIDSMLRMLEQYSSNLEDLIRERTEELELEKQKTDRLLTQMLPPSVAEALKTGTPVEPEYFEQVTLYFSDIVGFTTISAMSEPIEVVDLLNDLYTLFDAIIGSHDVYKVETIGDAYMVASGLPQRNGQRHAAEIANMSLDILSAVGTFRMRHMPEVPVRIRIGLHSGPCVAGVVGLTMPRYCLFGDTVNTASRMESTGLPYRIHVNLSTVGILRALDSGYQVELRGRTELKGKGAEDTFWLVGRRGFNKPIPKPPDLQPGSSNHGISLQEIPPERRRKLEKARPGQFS

[2] = target: the molecule itself; assay: SEC; analytical gel filtration, Superose 12 10/300, 20 mM Tris-HCl pH 7.5, 150 mM KCl, 1 mM DTT, 500 µM EGTA + 1 mM Mg2+ or 1 mM Mg2+ + 1 mM Ca2+, room temperature; protein 20 µM (methods) or ~45 µM; apparent MW from a calibration curve

B1: N104H-GCAP1 (guanylate cyclase-activating protein 1, variant p.Asn104His, in the E6S background) (natural protein, human, UniProt P43080 1-201, looked up)
chain: MGNVMSGKSVEELSSTECHQWYKKFMTECPSGQLTLYEFRQFFGLKNLSPSASQYVEQMFETFDFNKDGYIDFMEYVAALSLVLKGKVEQKLRWYFKLYDVDGHGCIDRDELLTIIQAIRAINPCSDTTMTAEEFTDTVFSKIDVNGDGELSLEEFIEGVQKDQMLLDTLTRSLDLTRIVRRLQNGEQDEEGADEAAEAAG
modifications: N-terminal myristoylation (by co-expressed S. cerevisiae N-myristoyl transferase, yNMT)
notes: cDNA of GCAP1-E6S in pET-11a (NdeI/NheI); c.310A>C p.(Asn104His) introduced by site-directed mutagenesis; N104H is a patient variant; E6S was put in by the authors to give the consensus for myristoylation by yNMT; No tag is mentioned; Myristoylation on Gly2 implies loss of the initiator Met (surmise); also called N104H-GCAP1 variant; p.N104H; source: E. coli BL21 co-transformed with pBB131-yNMT
GC activity (cGMP synthesis, HPLC) of HEK293 membranes with human GC as a function of N104H-GCAP1 concentration (0-10 µM) at <19 nM free Ca2+; EC50 = [N104H] at which GC activity is half-maximal [1]: 1600 nM
stoichiometry N [2]: 2
